{"source": "patent US20260166140A1", "about": "“Combinations Involving Epidermal Growth Factor Receptor Tyrosine Kinase Inhibitors For the Treatment of Cancer” (AstraZeneca AB, priority 2022, published 2026)", "molecules": {"B1": {"name": "RAA22/IgG: single-arm specific control antibody molecule with RAA22 EGFR arm (antibody, V domains shown)", "VH": "QVQLVQSGAEVKKPGSSVKVSCKASGGTFSDNDFSWVRQAPGQGLEWMGAIVAVFRTETYAQKFQDRVKITADISTRTTYMELSSLRSEDTAVYYCARRLMSAISGPGAPLLMWGQGTLVTVSS", "VL": "QSALTQPRSVSGSPGQSVTISCTGTSSDVGGYNYVSWYQQHPGKAPKLMIYDVSKRPSGVPDRFSGSKSGNTASLTISGLQAEDEADYYCSSYTSSDTLEIFGGGTKLTVL"}, "B2": {"name": "B09/IgG: single-arm specific control antibody molecule with B09 cMET arm (antibody, V domains shown)", "VH": "QVQLVQSGAEVKKPGASVKVSCKASGYTFTDYYIHWVRQATGQGLEWMGWMNPNSGNTGYAQKFQGRVTMTRDTSISTAYMELSSLRSEDTAVYYCARGQGYTHSWGQGTMVTVSS", "VL": "DIQMTQSPSTLSASVGDRVTITCRASEGIYHWLAWYQQKPGKAPKLLIYKASSLASGVPSRFSGSGSGTEFTLTISSLQPDDFATYYCQQYSNYPPTFGGGTKLEIK", "modifications": "left off: another chain or arm of the molecule; a dimerising Fc or GST; small tags and cut ends"}, "B3": {"name": "QD6 IgG: high affinity anti-EGFR IgG1 antibody clone, VH SEQ ID NO: 18, VL SEQ ID NO: 22 (antibody, V domains shown)", "VH": "B1 VH with F55V", "VL": "B1 VL with K55E, S91F"}, "B4": {"name": "QD6/IgG: single-arm specific control antibody molecule with QD6 EGFR arm (antibody, V domains shown)", "VH": "B1 VH with F55V", "VL": "B1 VL with K55E, S91F"}}, "key": {"[1]": {"tested_on": "multiple additional solid tumor indications", "settings": "cited from earlier work"}, "[2]": {"tested_on": "H1975 cells", "experiment": "Internalization of AF647-labeled antibodies, live cell confocal fluorescence microscopy", "type": "cell-based", "settings": "for internalization profile: single-arm control antibodies", "description": "(§1) Internalization kinetics of AlexaFluor647 (AF647) primary-labeled DuetMabs: RAA22/B09 and QD6/B09 antibodies was assessed in vitro using the EGFR and c-MET expressing cell line, H1975. Each antibody was pre-bound to cells and antibody translocation from cell surface to cytoplasm was then monitored using live cell confocal fluorescence microscopy. Both antibodies localized primarily on the cell surface before (T=0) subjecting to internalization conditions and were translocated to the cytoplasm area after 1 hour (data not shown). Kinetic images were taken every 5 min over the time course of internalization and were processed using a quantitative algorithm to determine internalization kinetic constants and half-times.\nTo evaluate the mode of antibody internalization and to investigate contribution of each arm to overall internalization of the DuetMabs, we evaluated internalization of single-arm specific control antibody molecules, QD6/IgG and B09/IgG, against duet QD6/B09, and RAA22/IgG and B09/IgG against duet RAA22/B09 in H1975 cells, which express both EGFR and c-MET. Since only one arm is specific for the target receptor, the control antibody can only internalize via one receptor eliminating dual receptor targeting and cross-linking as mode of internalization."}, "[3]": {"tested_on": "HCC827 cells", "experiment": "Internalization of AF647-labeled antibodies, live cell confocal fluorescence microscopy", "type": "cell-based", "settings": "HCC827 cells", "description": "as §1\nSince binding of both EGFR and c-MET arms to target receptor promoted RAA22/B09 receptor internalization in H1975 cells, we examined if the increased number of EGFR and c-MET receptors would affect internalization properties. The respective receptor levels determined by Western Blot were ˜33,000 for EGFR and ˜50,000 for c-MET in H1975 cells and ˜790,000 for EGFR and ˜523,000 for c-MET in HCC827 cells."}, "[4]": {"target": "T1, Mouse EGFR (Mus musculus, UniProt Q01279)", "T1 construct": "purchased SinoBiological 51091-M08H", "experiment": "ELISA species cross reactivity", "type": "binding", "description": "(§2) Specificity for EGFR and cMET species paralogs and closely related family members was determined by ELISA. Briefly, antigen solutions were prepared in PBS at 1 μg/mL and 50 microliters was coated onto half area ELISA assay plates. Plates were washed and blocked with 1% BSA in PBS containing 0.005% Tween-20 (PBS-T) for one hour at room temperature. The wells were washed 4 times in PBS-T. As set out in FIG. 3, the primary antibodies used where: R374 (a non-binding IgG1 isotype control antibody), B09 (anti-cMET antibody), QD6 (anti-EGFR antibody), RAA22 (anti-EGFR antibody), QD6/B09 (bispecific EGFR/c-MET DuetMAb), RAA22/B09 (bispecific EGFR/c-MET DuetMAb), PaniX (anti-EGFR antibody), MetMab (anti-cMET antibody) and Mab11311 (anti-HER4 antibody). Wells were incubated with 50 microliters of the indicated primary antibodies diluted in PBS-T in a 1:3 dilution series, starting at 10 μg/mL and ending at 0.002 μg/mL, except for the HER4 binding mAb control, MAB1131, for which the series started at 1 μg/mL. The wells were washed 4 times in PBS-T, then 50 μl of goat anti-human Fab HRP-labeled secondary antibody, diluted 1:5000 in PBS-T, was added to each well and incubated for one hour at room temperature. […] 50 microliters of TMB stop solution was added to all wells and the absorbance was read at 450 nm on a SpectraMax M5 microplate reader. Data were analyzed in the SoftMax Pro 5 software and plotted using GraphPad Prism 7 graphing software.\n(§3) To determine the species cross reactivity, ELISA assays were carried out as described above. […] There was no detectable binding of any of the antibodies to mouse cMET."}, "[5]": {"tested_on": "Cynomolgus monkey EGFR", "experiment": "ELISA species cross reactivity", "type": "binding", "description": "as §2, §3"}, "[6]": {"target": "T2, Human EGFR (Homo sapiens, UniProt P00533)", "experiment": "ELISA species cross reactivity", "type": "binding", "settings": "antibody 10 to 0.002 μg/mL", "description": "as §2, §3"}, "[7]": {"target": "T1, Mouse EGFR", "experiment": "SPR (BIAcore T200) antibody capture kinetics", "type": "binding", "settings": "25° C.", "description": "(§4) Mouse anti-human IgG was immobilized on a CM4 sensor chip with a final surface density of ˜2000 resonance units (RUs). A reference flow cell surface was also prepared on this sensor chip using identical immobilization protocol. Test and control article antibodies were prepared at 5-20 nM in instrument buffer (HBS-EP buffer; 0.01M HEPES, pH 7.4, 0.15M NaCl, 3 mM EDTA, and 0.005% P-20), along with 3-fold serial dilutions of purified EGFR (0.27-200 nM human, 0.4-900 nM cyno, and 4-1000 nM murine) or cMET proteins (0.27 to 66 nM human and 0.27-22 nM cyno) in instrument buffer. A sequential approach was utilized for kinetic measurements. Antibodies were first injected over the capture surface, at a flow rate of 10 μL/minute. Once the binding of the captured antibody stabilized, a single concentration of the analyte was injected over both capture and reference surfaces, at a flow rate of 75 μL/minute. The resulting binding response curves yielded the association phase data. Following the injection of analyte, the flow was then switched back to instrument buffer for 15 minutes to permit the collection of dissociation phase data, followed by a 1-minute pulse of 10 mM glycine, pH 1.5, to regenerate the antibody-captured surface on the chip. Binding responses against test and control article antibodies were recorded from duplicate injections of each concentration of analyte. In addition, several buffer injections were interspersed throughout the injection series. Select buffer injections were used along with the reference cell responses to correct the raw data sets for injection artifacts and/or nonspecific binding interactions, commonly referred to as “double referencing”. Corrected binding data were globally fit to a 1:1 binding model (Biacore T200 Evaluation software 2.0, GE Healthcare, Pittsburgh, PA)."}, "[8]": {"tested_on": "Cynomolgus monkey EGFR", "experiment": "SPR (BIAcore T200) antibody capture kinetics", "type": "binding", "settings": "25° C.", "description": "as §4"}, "[9]": {"target": "T2, Human EGFR", "experiment": "SPR (BIAcore T200) antibody capture kinetics", "type": "binding", "settings": "25° C.", "description": "as §4"}}, "note": "Substitutions are numbered along the chain they refer to."}
{"molecule": "ABT-414", "values": [{"measurement": "efficacy", "setting": "[1]; Phase II trials, tolerated doses", "value": "limited efficacy at tolerated doses"}, {"measurement": "ocular toxicities", "setting": "[1]; treated patients", "value": "concerning ocular toxicities were frequently observed in treated patients"}]}
{"molecule": "B1", "values": [{"measurement": "number of molecules, fold less than for the RAA22-B09 DuetMab (based on fluorescent intensity)", "setting": "[2]", "value": 10.98, "unit": "fold"}, {"measurement": "internalization profile", "setting": "[2]", "value": "rapid internalization"}, {"measurement": "intensity profiles, fold lower than RAA22/B09", "setting": "[3]", "value": "~10", "unit": "fold"}]}
{"molecule": "B2", "values": [{"measurement": "internalization profile", "setting": "[2]", "value": "very small level of internalization"}, {"measurement": "internalization profile", "setting": "[3]", "value": "dissociates from cell membrane"}]}
{"molecule": "B3", "values": [{"measurement": "ELISA binding", "setting": "[4]", "value": "gave robust signals"}, {"measurement": "ELISA binding", "setting": "[5]", "value": "gave robust signals"}, {"measurement": "ELISA binding", "setting": "[6]", "value": "gave robust signals"}, {"measurement": "Koff", "setting": "[7]", "value": 0.000735, "unit": "s⁻¹"}, {"measurement": "Kon", "setting": "[7]", "value": 167000, "unit": "M⁻¹ s⁻¹"}, {"measurement": "Koff", "setting": "[8]", "value": 0.000288, "unit": "s⁻¹"}, {"measurement": "Kon", "setting": "[8]", "value": 114000, "unit": "M⁻¹ s⁻¹"}, {"measurement": "Koff", "setting": "[9]", "value": 0.000292, "unit": "s⁻¹"}, {"measurement": "Kon", "setting": "[9]; 1:1 binding model", "value": 148000, "unit": "M⁻¹ s⁻¹"}]}
{"molecule": "B4", "values": [{"measurement": "internalization profile", "setting": "[2]", "value": "near-identical internalization time course as the QD6/B09 DuetMab"}]}
